Source: publication PMC4124618

System: Cc1[nH]c2ccccc2c1CCN
Test: steady-state kinetics of halogenation
Format: biochemical, Lentzea aerocolonigenes
Settings: 21 °C

Row | Substance | Km [µM] | kcat [s⁻¹] | kcat/Km [M⁻¹ s⁻¹] | Km (variant 3-LSR) [µM] | kcat (variant 3-LSR) [s⁻¹] | kcat/Km (variant 3-LSR) [M⁻¹ s⁻¹]
1 | RebH (Lentzea aerocolonigenes) | 16.8 ± 3.8 | 0.06 ± 0.0057 | 3600 | – | – | –
2 | RebH (Lentzea aerocolonigenes; E423D/E461G/K145M/M71V/N166S/Q494R/S130L/S2P) | – | – | – | 40.2 ± 3.7 | 0.013 ± 0.00036 | 330
